According to US20150359843A1 (AGENCY FOR SCIENCE TECHNOLOGY AND RESEARCH, published 2015):
No end group written: not given here.

Molecular target: T1, p53 wt-FL (human, UniProt P04637 1-393)
T1 construct: mature; Full-length protein made by in vitro transcription/translation, used unpurified in the IVT mixture; also called wild-type full length p53; IVT synthesized p53 wt-FL
Experiment: ELISA conformation 1: biotinylated peptide on streptavidin plate, IVT p53 wt-FL added, detected with DO-1, Bp53 10.1 or CM1 and HRP secondary; ctrl = no p53 extract

T1 sequence (P04637 whole entry): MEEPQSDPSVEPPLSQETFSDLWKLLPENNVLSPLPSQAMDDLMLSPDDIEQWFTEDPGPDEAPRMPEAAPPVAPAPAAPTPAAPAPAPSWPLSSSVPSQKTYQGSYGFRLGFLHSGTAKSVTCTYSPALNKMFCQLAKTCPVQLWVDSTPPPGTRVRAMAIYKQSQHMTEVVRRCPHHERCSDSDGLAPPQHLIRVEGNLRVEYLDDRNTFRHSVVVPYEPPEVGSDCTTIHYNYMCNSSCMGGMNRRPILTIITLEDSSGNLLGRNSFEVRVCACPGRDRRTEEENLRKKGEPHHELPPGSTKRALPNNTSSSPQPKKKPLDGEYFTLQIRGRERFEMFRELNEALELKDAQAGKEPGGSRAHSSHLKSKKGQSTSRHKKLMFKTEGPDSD

binding result	Binder
no binding	SPTTNH (also: biotin at N- or C-terminus in ELISA forms only, also called peptide SPT; Peptide-P1) [Pap-SPT]
no binding	MPHLMAC (also: biotin at N- or C-terminus in ELISA forms, also called peptide MPH) [Pap-MPH]
